In article PMC10192418 (2023) one finds Kd data, which are given here for four molecules.

Ends that are not written are not given here. FAM = 5(6)-carboxyfluorescein (N-terminal)

One may read the Kd as the constant that tells how readily two partners part at equilibrium.

B1: B-RCAL (BÜHLMANN recombinant calprotectin; His6-linker-S100A9-linker-S100A8) (complex)
chain: MTCKMSQLERNIETIINTFHQYSVKLGHPDTLNQGEFKELVRKDLQNFLKKENKNEKVIEHIMEDLDTNADKQLSFEEFIMLMARLTWASHEKMHEGDEGPGHHHKPGLGEGTPLEVLFQGPMLTELEKALNSIIDVYHKYSLIKGNFHAVYRDDLKKLLETECPQYIRKKGADVWFKELDINTDGAVNFQEFLILVIKMGVAAHKKSHEESHKE

In assay [1] the target is Peptide 2. The assay can be described thus: SPR.
The target in assay [2] is Peptide 7. The assay can be described thus: SPR.
The target in assay [3] is Peptide 3. The assay can be described thus: SPR. A general note: In SPR one partner is held on a chip, and binding of the other changes the refractive index at the surface.
In assay [4] the target is Peptide 6. Nature of the assay: SPR.
The target of assay [5] is Peptide 4. Nature of the assay: SPR.
The target in assay [6] is Peptide 1. Nature of the assay: SPR.
For assay [7], the target named is Peptide 5. Nature of the assay: FP; Ca2+.
In assay [8] the target is Peptide 2. The assay can be described thus: FP; Ca2+.
The target of assay [9] is Peptide 7. Nature of the assay: FP; Ca2+.
Assay [10] has as its target Peptide 6. The assay can be described thus: FP; Ca2+.
Assay [11] concerns the target Peptide 4. Nature of the assay: FP; Ca2+.
Assay [12] addresses Peptide 1. The assay can be described thus: FP; Ca2+.
Assay [13] addresses Peptide 8. The assay can be described thus: FP; calcium (tetramer).
For assay [14], the target named is Peptide 10. Nature of the assay: FP; calcium (tetramer).
Assay [15] concerns the target Peptide 13. The assay can be described thus: FP; calcium (tetramer).
The target in assay [16] is Peptide 11. The assay can be described thus: FP; calcium (tetramer).
The target in assay [17] is Peptide 9. The assay can be described thus: FP; calcium (tetramer).
The target in assay [18] is Peptide 12. The assay can be described thus: FP; calcium (tetramer).
Assay [19] deals with B1. The assay can be described thus: SPR.

For B1, the Kd turned out to be 400 nM in assay [1]; 840 nM in assay [2]; 340 nM in assay [3]; 310 nM in [4]; 1100 nM in assay [5]; 1220 nM in assay [6]. The Kd is 55 nM in assay [7]; 22 nM in assay [8]; 25 nM in assay [9]; 10 nM in [10]; 34 nM in assay [11]; 38 nM in assay [12]. For the same molecule, the Kd in [13] came to 89 nM; in assay [14], 190000 nM; in assay [15] it was 154000 nM; in assay [16], 42000 nM; in assay [17], 29000 nM; in [18], 37000 nM.

For the molecule {FAM}-RSPESVAFPMFQSHWYSG [linear peptide 3], in assay [19], the Kd amounted to 46 nM.

Turning to Fluorescein-RCPECVAFPMFQCHWYCG (not fully specified (bridges); also: disulfide pairing not given here) [peptide 3 isomer 2], in [19], the equilibrium dissociation constant (Kd) stood at 500 nM.

For the molecule Fluorescein-RCPECVAFPMFQCHWYCG (not fully specified (bridges); also: disulfide pairing not given here) [peptide 3 isomer 3], in assay [19], the Kd was 270 nM.
